Results published in the supplement of paper PMC10126150.
± gives the standard deviation of the averaged measurements.

System: ATP
Assay: switch fluorescence ratio, 500 uM ATP over buffer (Cy3 cluster intensity, sum of 5 cycles each) (fold (ratio)); higher = stronger signal-on switching upon ATP binding; sequences stand for … in TCGTCGGCAGCGTCAGATGTGTATAAGAGACAGTTTTTTTTTTTTTTTTTTTTTTTTT…TC
Conditions: aptamer strand: ATP DNA aptamer (quencher-CACCTGGGGGAGTATTGCGGAGGAAGG + anchor), 100 nM annealed; ATP concentration: 500 uM
Summary of the method: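 Cy3-labelled switching-strand clusters on a modified Illumina MiSeq flow-cell were annealed to 100 nM quencher-labelled ATP aptamer and imaged first in selection buffer, then after 15 min with 500 uM ATP at 22 °C. NaOH stripping and re-annealing separated each of five buffer/ATP cycles, and clusters outside 100-1000 RFU were excluded. The fluorescence ratio sums target-cycle Cy3 intensity over buffer-cycle Cy3 intensity per cluster and averages it per switch-domain sequence.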
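Note: ATP exposure 15 min at 22 °C before imaging.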

Row | Sequence | switch fluorescence ratio
1 | TTTTTCCGGA | 0.997 ± 0.048
2 | TTTTTCCTAC | 1 ± 0.016
3 | TTTTTCGACC | 1.01 ± 0.035
4 | TTTTTCGG | 0.996 ± 0.025
5 | TTTTTCGGCT | 0.985 ± 0.044
6 | TTTTTCGGTA | 1.05 ± 0.038
7 | TTTTTCGGTT | 0.998 ± 0.039
8 | TTTTTCGTTG | 0.997 ± 0.049
9 | TTTTTCTAAA | 0.9834 ± 0.0074
10 | TTTTTCTCGG | 0.992 ± 0.01
11 | TTTTTCTTCT | 1.31 ± 0.36
12 | TTTTTGAAAG | 0.996 ± 0.013
13 | TTTTTGAAGG | 0.992 ± 0.024
14 | TTTTTGAATC | 0.983 ± 0.017
15 | TTTTTGAGAA | 0.983 ± 0.033
16 | TTTTTGATAT | 1.05 ± 0.056
17 | TTTTTGATTG | 1.01 ± 0.014
18 | TTTTTGCCGC | 1.02 ± 0.012
19 | TTTTTGCCTT | 1 ± 0.024
20 | TTTTTGCTGA | 1.01 ± 0.032
21 | TTTTTGCTTG | 0.98 ± 0.029

Row | Sequence | switch fluorescence ratio
22 | TTTTTGGACG | 0.969 ± 0.081
23 | TTTTTGGATC | 1 ± 0.025
24 | TTTTTGGCGT | 1.02 ± 0.033
25 | TTTTTGGGAG | 1.01 ± 0.024
26 | TTTTTGGGCT | 0.996 ± 0.028
27 | TTTTTGGGTG | 1.03 ± 0.058
28 | TTTTTGGTA | 0.985 ± 0.011
29 | TTTTTGGTAG | 1 ± 0.042
30 | TTTTTGGTCG | 0.993 ± 0.086
31 | TTTTTGGTCT | 0.997 ± 0.027
32 | TTTTTGGTGG | 1 ± 0.032
33 | TTTTTGTACT | 1.11 ± 0.083
34 | TTTTTGTATC | 0.968 ± 0.022
35 | TTTTTGTCAC | 1.03 ± 0.038
36 | TTTTTGTGAT | 1.02 ± 0.032
37 | TTTTTGTGGA | 1.03 ± 0.019
38 | TTTTTGTGGT | 1 ± 0.036
39 | TTTTTGTGTG | 0.993 ± 0.023
40 | TTTTTGTTGA | 0.991 ± 0.026
41 | TTTTTGTTTT | 1 ± 0.035
42 | TTTTTTAAAA | 0.995 ± 0.03

Row | Sequence | switch fluorescence ratio
43 | TTTTTTAATT | 1.03 ± 0.071
44 | TTTTTTACGA | 1.04 ± 0.028
45 | TTTTTTACTA | 1.023 ± 0.0015
46 | TTTTTTAGCG | 0.99 ± 0.029
47 | TTTTTTATA | 0.996 ± 0.032
48 | TTTTTTATAA | 1.01 ± 0.023
49 | TTTTTTCAAT | 1.03 ± 0.029
50 | TTTTTTCAGA | 0.975 ± 0.029
51 | TTTTTTCCGA | 1.02 ± 0.046
52 | TTTTTTCCTC | 1.1 ± 0.2
53 | TTTTTTCGGT | 1.01 ± 0.051
54 | TTTTTTCTAC | 1.31 ± 0.67
55 | TTTTTTCTCG | 1.04 ± 0.078
56 | TTTTTTCTTA | 0.995 ± 0.023
57 | TTTTTTCTTG | 1.02 ± 0.034
58 | TTTTTTGACG | 0.9938 ± 0.0062
59 | TTTTTTGAGG | 0.981 ± 0.025
60 | TTTTTTGAGT | 1 ± 0.023
61 | TTTTTTGATG | 1.01 ± 0.027
62 | TTTTTTGCAG | 0.987 ± 0.029
63 | TTTTTTGCCA | 1.01 ± 0.051

Row | Sequence | switch fluorescence ratio
64 | TTTTTTGCCC | 1.02 ± 0.048
65 | TTTTTTGCTA | 1.01 ± 0.026
66 | TTTTTTGCTG | 0.985 ± 0.026
67 | TTTTTTGGG | 0.9686 ± 0.0027
68 | TTTTTTGGGA | 1.01 ± 0.019
69 | TTTTTTGGGG | 0.984 ± 0.023
70 | TTTTTTGTAT | 1.02 ± 0.087
71 | TTTTTTGTCT | 0.993 ± 0.021
72 | TTTTTTGTGT | 0.991 ± 0.03
73 | TTTTTTGTT | 0.977 ± 0.034
74 | TTTTTTGTTT | 1 ± 0.029
75 | TTTTTTTATA | 0.991 ± 0.024
76 | TTTTTTTCAG | 1.01 ± 0.016
77 | TTTTTTTCGT | 1.07 ± 0.21
78 | TTTTTTTCT | 1.01 ± 0.046
79 | TTTTTTTGAG | 1.02 ± 0.026
80 | TTTTTTTGAT | 1.16 ± 0.53
81 | TTTTTTTGTG | 0.984 ± 0.019
82 | TTTTTTTT | 1.04 ± 0.047
83 | TTTTTTTTGA | 0.998 ± 0.017
